Measurements from patent US20160333062A1 (REGENTS OF THE UNIVERSITY OF COLORADO A BODY CORPORATE, published 2016).
Non-standard residues stand in square brackets, D forms with d. No end group written: not given here.

What was measured:
[1] = molecular target: the molecule itself; assay: RP-HPLC temperature profiling, self-association (dimerization/oligomerization)
Description: (§1) The purity of the peptides was verified by analytical RP-HPLC and the peptides were characterized by mass spectrometry (LC/MS). Crude and purified peptides were analyzed on an Agilent 1100 series liquid chromatograph (Little Falls, Del., USA). Analytical runs were performed on a Zorbax 300 SB-C₈ column (150×2.1 mm I.D.; 5 μm particle size, 300 Å pore size) from Agilent Technologies using a linear AB gradient (1% acetonitrile/min) and a flow rate of 0.25 mL/min, where eluent A was 0.2% aqueous TFA, pH 2, and eluent B was 0.18% TFA in acetonitrile. Temperature profiling analyses were performed on the same column in 3° C. increments, from 5° C. to 80° C. using a linear AB gradient of 0.5% acetonitrile/min.
^atR denotes retention time in RP-HPLC at pH 2 and room temperature, and is a measure of overall peptide hydrophobicity. ^bThe mean residue molar ellipticities [θ]₂₂₂ (deg cm²/dmol) at wavelength 222 nm were measured at 5° C. in benign conditions (100 mM KCl, 50 mM NaH₂PO₄/Na₂HPO₄, pH 7.0) or in benign buffer containing 50% trifluoroethanol (TFE) by circular dichroism spectroscopy. ^cThe helical content (as a percentage) of a peptide relative to the molar ellipticity value of parent peptide (D-Piscidin 1 or D-Dermaseptin S4) in the presence of 50% TFE. ^dPA denotes self-association parameter (dimerization/oligomerization) of each peptide during RP-HPLC temperature profiling, which is the maximal retention time difference of (tR^t-tR⁵ for peptide analogs)-(tR^t-tR⁵ for control peptide C) within the temperature range; tR^t-tR⁵ is the retention time difference of a peptide at a specific temperature (tR^{t)} compared with that at 5° C. (tR⁵). The sequence of the random coil control peptide C is shown in Table 1. ^eAmphipathicity was determined by calculation of hydrophobic moment using hydrophobicity coefficients determined by reversed-phase chromatography; see methods for details. The amphipathicity values for D-Dermaseptin S4 and its analogs (residues 1-14) are shown in brackets.

[2] = molecular target: the molecule itself; assay: RP-HPLC temperature profiling, 5 to 80 C, pH 2 (self-association)
Description: as §1
Control peptide C is a monomeric random coil peptide in both aqueous and hydrophobic media; thus, its linear decrease in peptide retention behavior with increasing temperature within the range of 5° C. to 80° C. represents only the general effects of temperature due to greater solute diffusivity and enhanced mass transfer between the stationary and mobile phase at higher temperatures. To allow for these general temperature effects, the data for the control peptide was subtracted from each temperature profile, as shown in FIG. 6B. Thus, the peptide self-association parameter, PA, represents the maximum change in peptide retention time relative to the random coil peptide C. […]

Row | Protein | PA (self-association parameter) [1] [min] | binding result [2]
1 | [dF][dF][dH][dH][dI][dF][dR]G[dI][dV][dH][dV][dK][dK][dT][dI][dH][dR][dL][dV][dT]G-NH2 (N-terminus assumed; SMILES CC[C@@H](C)[C@@H](NC(=O)CNC(=O)[C@@H](CCCNC(=N)N)NC(=O)[C@@H](Cc1ccccc1)NC(=O)[C@H](NC(=O)[C@@H](Cc1c[nH]cn1)NC(=O)[C@@H](Cc1c[nH]cn1)NC(=O)[C@@H](Cc1ccccc1)NC(=O)[C@H](N)Cc1ccccc1)[C@H](C)CC)C(=O)N[C@@H](C(=O)N[C@H](Cc1c[nH]cn1)C(=O)N[C@@H](C(=O)N[C@H](CCCCN)C(=O)N[C@H](CCCCN)C(=O)N[C@@H](C(=O)N[C@@H](C(=O)N[C@H](Cc1c[nH]cn1)C(=O)N[C@H](CCCNC(=N)N)C(=O)N[C@H](CC(C)C)C(=O)N[C@@H](C(=O)N[C@@H](C(=O)NCC(N)=O)[C@H](C)O)C(C)C)[C@H](C)CC)[C@H](C)O)C(C)C)C(C)C, Synthetic all-D analog; also called D-Piscidin G13K) [D-Piscidin 1 G13K] | 0.95 | –
2 | [dA][dL][dW][dM][dT][dL][dK][dK][dK][dV][dL][dK][dA][dK][dA][dK][dA][dL][dN][dA][dV][dL][dV]G[dA][dN][dA]-NH2 (N-terminus assumed; SMILES CSCC[C@@H](NC(=O)[C@@H](Cc1c[nH]c2ccccc12)NC(=O)[C@@H](CC(C)C)NC(=O)[C@@H](C)N)C(=O)N[C@@H](C(=O)N[C@H](CC(C)C)C(=O)N[C@H](CCCCN)C(=O)N[C@H](CCCCN)C(=O)N[C@H](CCCCN)C(=O)N[C@@H](C(=O)N[C@H](CC(C)C)C(=O)N[C@H](CCCCN)C(=O)N[C@H](C)C(=O)N[C@H](CCCCN)C(=O)N[C@H](C)C(=O)N[C@H](CCCCN)C(=O)N[C@H](C)C(=O)N[C@H](CC(C)C)C(=O)N[C@H](CC(N)=O)C(=O)N[C@H](C)C(=O)N[C@@H](C(=O)N[C@H](CC(C)C)C(=O)N[C@@H](C(=O)NCC(=O)N[C@H](C)C(=O)N[C@H](CC(N)=O)C(=O)N[C@H](C)C(N)=O)C(C)C)C(C)C)C(C)C)[C@H](C)O, Synthetic all-D analog; also called D-Dermaseptin S4 L7K, A14K (27-mer)) [D-Dermaseptin S4 L7K, A14K] | 2.29 | –
3 | [dF][dF][dH][dH][dI][dF][dR]G[dK][dV][dH][dV]G[dK][dT][dI][dH][dR][dL][dV][dT]G-NH2 (N-terminus assumed; SMILES CC[C@@H](C)[C@@H](NC(=O)[C@@H](Cc1c[nH]cn1)NC(=O)[C@@H](Cc1c[nH]cn1)NC(=O)[C@@H](Cc1ccccc1)NC(=O)[C@H](N)Cc1ccccc1)C(=O)N[C@H](Cc1ccccc1)C(=O)N[C@H](CCCNC(=N)N)C(=O)NCC(=O)N[C@H](CCCCN)C(=O)N[C@@H](C(=O)N[C@H](Cc1c[nH]cn1)C(=O)N[C@@H](C(=O)NCC(=O)N[C@H](CCCCN)C(=O)N[C@@H](C(=O)N[C@@H](C(=O)N[C@H](Cc1c[nH]cn1)C(=O)N[C@H](CCCNC(=N)N)C(=O)N[C@H](CC(C)C)C(=O)N[C@@H](C(=O)N[C@@H](C(=O)NCC(N)=O)[C@H](C)O)C(C)C)[C@H](C)CC)[C@H](C)O)C(C)C)C(C)C, Synthetic all-D analog; also called D-Piscidin I9K) [D-Piscidin 1 I9K] | 1.29 | –
4 | [dF][dF][dH][dH][dI][dF][dR]G[dI][dV][dH][dV]G[dK][dT][dI][dH][dR][dL][dV][dT]G-NH2 (N-terminus assumed; SMILES CC[C@@H](C)[C@@H](NC(=O)CNC(=O)[C@@H](CCCNC(=N)N)NC(=O)[C@@H](Cc1ccccc1)NC(=O)[C@H](NC(=O)[C@@H](Cc1c[nH]cn1)NC(=O)[C@@H](Cc1c[nH]cn1)NC(=O)[C@@H](Cc1ccccc1)NC(=O)[C@H](N)Cc1ccccc1)[C@H](C)CC)C(=O)N[C@@H](C(=O)N[C@H](Cc1c[nH]cn1)C(=O)N[C@@H](C(=O)NCC(=O)N[C@H](CCCCN)C(=O)N[C@@H](C(=O)N[C@@H](C(=O)N[C@H](Cc1c[nH]cn1)C(=O)N[C@H](CCCNC(=N)N)C(=O)N[C@H](CC(C)C)C(=O)N[C@@H](C(=O)N[C@@H](C(=O)NCC(N)=O)[C@H](C)O)C(C)C)[C@H](C)CC)[C@H](C)O)C(C)C)C(C)C, also called native D-Piscidin 1) [D-Piscidin 1] | 0.78 | –
5 | [dA][dL][dW][dM][dT][dL][dK][dK][dK][dV][dL][dK][dA][dA][dA][dK][dA][dL][dN][dA][dV][dL][dV]G[dA][dN][dA]-NH2 (N-terminus assumed; SMILES CSCC[C@@H](NC(=O)[C@@H](Cc1c[nH]c2ccccc12)NC(=O)[C@@H](CC(C)C)NC(=O)[C@@H](C)N)C(=O)N[C@@H](C(=O)N[C@H](CC(C)C)C(=O)N[C@H](CCCCN)C(=O)N[C@H](CCCCN)C(=O)N[C@H](CCCCN)C(=O)N[C@@H](C(=O)N[C@H](CC(C)C)C(=O)N[C@H](CCCCN)C(=O)N[C@H](C)C(=O)N[C@H](C)C(=O)N[C@H](C)C(=O)N[C@H](CCCCN)C(=O)N[C@H](C)C(=O)N[C@H](CC(C)C)C(=O)N[C@H](CC(N)=O)C(=O)N[C@H](C)C(=O)N[C@@H](C(=O)N[C@H](CC(C)C)C(=O)N[C@@H](C(=O)NCC(=O)N[C@H](C)C(=O)N[C@H](CC(N)=O)C(=O)N[C@H](C)C(N)=O)C(C)C)C(C)C)C(C)C)[C@H](C)O, Synthetic all-D analog; also called D-Dermaseptin S4 L7K (27-mer)) [D-Dermaseptin S4 L7K] | 4.8 | –
6 | Ac-ELEKGGLEGEKGGKELEK-NH2 (also called control peptide C; random coil control peptide (C)) [Control C] | – | no binding
7 | [dF][dF][dH][dH][dI][dF][dR]G[dI][dV][dH][dK]G[dK][dT][dI][dH][dR][dL][dV][dT]G-NH2 (N-terminus assumed; SMILES CC[C@@H](C)[C@@H](NC(=O)CNC(=O)[C@@H](CCCNC(=N)N)NC(=O)[C@@H](Cc1ccccc1)NC(=O)[C@H](NC(=O)[C@@H](Cc1c[nH]cn1)NC(=O)[C@@H](Cc1c[nH]cn1)NC(=O)[C@@H](Cc1ccccc1)NC(=O)[C@H](N)Cc1ccccc1)[C@H](C)CC)C(=O)N[C@@H](C(=O)N[C@H](Cc1c[nH]cn1)C(=O)N[C@H](CCCCN)C(=O)NCC(=O)N[C@H](CCCCN)C(=O)N[C@@H](C(=O)N[C@@H](C(=O)N[C@H](Cc1c[nH]cn1)C(=O)N[C@H](CCCNC(=N)N)C(=O)N[C@H](CC(C)C)C(=O)N[C@@H](C(=O)N[C@@H](C(=O)NCC(N)=O)[C@H](C)O)C(C)C)[C@H](C)CC)[C@H](C)O)C(C)C, Synthetic all-D analog) [D-Piscidin 1 V12K] | 0.69 | –
